This note sets out measurements from patent US20250327097A1, “ORGANISMS PRODUCING LESS CROTONIC ACID” (Global Bioenergies, priority 2021, published 2025).

B1: I283T-P284D-N287P-S322T-N388M-C430N-L432F-L434W-S436N-dG462-A463I (protein)
chain: MFLKSLREQINLLKRQGDLRIINRPVDSYLEAAAIIRRSTETKAPVPLMTNIKGYPGCSIVGGLAALSSNPEYPLSRVAMSLGLSTTASAQSIVQYLIDGLKKTPYLPVEIDSNSAPCKQNILRGEDASLAHFPIPQVHQHDGNRYVNTWGVFIVESPDGQWCNWSIQRVQYLNDRQMIALVFPSQHISDIWEEWVKIGKPMPYALVQGCEPIVPYIAGLPLLERNVNEAEYIGALYGKGIEVVKCETHDLRVPASSEVVIEGYFAITREGVEGPFGEFAGYTDNEPSLQPILSITAISWQDDPIWPVVAEGKPVDEYHTCTGIGDAAAIQNVLLTANLPVSFVWVPLYSACHLMIVSINRHWRQTHPDLTSEQLTKKVGDVIHQTRMSIKLPKIVVLDDDVDPADTESLLWALATRIHPERKRYFYESNIFPWLNCYSEEERHNRKGKRVIIDALLPENHGIISSFDYAYPDDIKQRVLMHWETDFSHD
B2: I283T-P284D-N287P-S322T-N388M-C430N-L432F-L434W-S436N-H461V-dG462 (protein)
chain: MFLKSLREQINLLKRQGDLRIINRPVDSYLEAAAIIRRSTETKAPVPLMTNIKGYPGCSIVGGLAALSSNPEYPLSRVAMSLGLSTTASAQSIVQYLIDGLKKTPYLPVEIDSNSAPCKQNILRGEDASLAHFPIPQVHQHDGNRYVNTWGVFIVESPDGQWCNWSIQRVQYLNDRQMIALVFPSQHISDIWEEWVKIGKPMPYALVQGCEPIVPYIAGLPLLERNVNEAEYIGALYGKGIEVVKCETHDLRVPASSEVVIEGYFAITREGVEGPFGEFAGYTDNEPSLQPILSITAISWQDDPIWPVVAEGKPVDEYHTCTGIGDAAAIQNVLLTANLPVSFVWVPLYSACHLMIVSINRHWRQTHPDLTSEQLTKKVGDVIHQTRMSIKLPKIVVLDDDVDPADTESLLWALATRIHPERKRYFYESNIFPWLNCYSEEERHNRKGKRVIIDALLPENVGAISSFDYAYPDDIKQRVLMHWETDFSHD
B3: I283T-P284D-N287P-S322T-N388M-C430N-L432F-L434W-S436N-H461T-dG462 (protein)
chain: MFLKSLREQINLLKRQGDLRIINRPVDSYLEAAAIIRRSTETKAPVPLMTNIKGYPGCSIVGGLAALSSNPEYPLSRVAMSLGLSTTASAQSIVQYLIDGLKKTPYLPVEIDSNSAPCKQNILRGEDASLAHFPIPQVHQHDGNRYVNTWGVFIVESPDGQWCNWSIQRVQYLNDRQMIALVFPSQHISDIWEEWVKIGKPMPYALVQGCEPIVPYIAGLPLLERNVNEAEYIGALYGKGIEVVKCETHDLRVPASSEVVIEGYFAITREGVEGPFGEFAGYTDNEPSLQPILSITAISWQDDPIWPVVAEGKPVDEYHTCTGIGDAAAIQNVLLTANLPVSFVWVPLYSACHLMIVSINRHWRQTHPDLTSEQLTKKVGDVIHQTRMSIKLPKIVVLDDDVDPADTESLLWALATRIHPERKRYFYESNIFPWLNCYSEEERHNRKGKRVIIDALLPENTGAISSFDYAYPDDIKQRVLMHWETDFSHD
B4: I283T-P284D-N287P-S322T-N388M-C430N-L432F-L434W-S436N-dG462-A463T (protein)
chain: MFLKSLREQINLLKRQGDLRIINRPVDSYLEAAAIIRRSTETKAPVPLMTNIKGYPGCSIVGGLAALSSNPEYPLSRVAMSLGLSTTASAQSIVQYLIDGLKKTPYLPVEIDSNSAPCKQNILRGEDASLAHFPIPQVHQHDGNRYVNTWGVFIVESPDGQWCNWSIQRVQYLNDRQMIALVFPSQHISDIWEEWVKIGKPMPYALVQGCEPIVPYIAGLPLLERNVNEAEYIGALYGKGIEVVKCETHDLRVPASSEVVIEGYFAITREGVEGPFGEFAGYTDNEPSLQPILSITAISWQDDPIWPVVAEGKPVDEYHTCTGIGDAAAIQNVLLTANLPVSFVWVPLYSACHLMIVSINRHWRQTHPDLTSEQLTKKVGDVIHQTRMSIKLPKIVVLDDDVDPADTESLLWALATRIHPERKRYFYESNIFPWLNCYSEEERHNRKGKRVIIDALLPENHGTISSFDYAYPDDIKQRVLMHWETDFSHD
B5: I283T-P284D-N287P-S322T-N388M-C430N-L432F-L434W-S436N-dG462-A463S (protein)
chain: MFLKSLREQINLLKRQGDLRIINRPVDSYLEAAAIIRRSTETKAPVPLMTNIKGYPGCSIVGGLAALSSNPEYPLSRVAMSLGLSTTASAQSIVQYLIDGLKKTPYLPVEIDSNSAPCKQNILRGEDASLAHFPIPQVHQHDGNRYVNTWGVFIVESPDGQWCNWSIQRVQYLNDRQMIALVFPSQHISDIWEEWVKIGKPMPYALVQGCEPIVPYIAGLPLLERNVNEAEYIGALYGKGIEVVKCETHDLRVPASSEVVIEGYFAITREGVEGPFGEFAGYTDNEPSLQPILSITAISWQDDPIWPVVAEGKPVDEYHTCTGIGDAAAIQNVLLTANLPVSFVWVPLYSACHLMIVSINRHWRQTHPDLTSEQLTKKVGDVIHQTRMSIKLPKIVVLDDDVDPADTESLLWALATRIHPERKRYFYESNIFPWLNCYSEEERHNRKGKRVIIDALLPENHGSISSFDYAYPDDIKQRVLMHWETDFSHD
B6: I283T-P284D-N287P-S322T-N388M-C430N-L432F-L434W-S436N-H461Y-dG462 (protein)
chain: MFLKSLREQINLLKRQGDLRIINRPVDSYLEAAAIIRRSTETKAPVPLMTNIKGYPGCSIVGGLAALSSNPEYPLSRVAMSLGLSTTASAQSIVQYLIDGLKKTPYLPVEIDSNSAPCKQNILRGEDASLAHFPIPQVHQHDGNRYVNTWGVFIVESPDGQWCNWSIQRVQYLNDRQMIALVFPSQHISDIWEEWVKIGKPMPYALVQGCEPIVPYIAGLPLLERNVNEAEYIGALYGKGIEVVKCETHDLRVPASSEVVIEGYFAITREGVEGPFGEFAGYTDNEPSLQPILSITAISWQDDPIWPVVAEGKPVDEYHTCTGIGDAAAIQNVLLTANLPVSFVWVPLYSACHLMIVSINRHWRQTHPDLTSEQLTKKVGDVIHQTRMSIKLPKIVVLDDDVDPADTESLLWALATRIHPERKRYFYESNIFPWLNCYSEEERHNRKGKRVIIDALLPENYGAISSFDYAYPDDIKQRVLMHWETDFSHD
B7: I283T-P284D-N287P-S322T-N388M-C430N-L432F-L434W-S436N-H461A-dG462 (protein)
chain: MFLKSLREQINLLKRQGDLRIINRPVDSYLEAAAIIRRSTETKAPVPLMTNIKGYPGCSIVGGLAALSSNPEYPLSRVAMSLGLSTTASAQSIVQYLIDGLKKTPYLPVEIDSNSAPCKQNILRGEDASLAHFPIPQVHQHDGNRYVNTWGVFIVESPDGQWCNWSIQRVQYLNDRQMIALVFPSQHISDIWEEWVKIGKPMPYALVQGCEPIVPYIAGLPLLERNVNEAEYIGALYGKGIEVVKCETHDLRVPASSEVVIEGYFAITREGVEGPFGEFAGYTDNEPSLQPILSITAISWQDDPIWPVVAEGKPVDEYHTCTGIGDAAAIQNVLLTANLPVSFVWVPLYSACHLMIVSINRHWRQTHPDLTSEQLTKKVGDVIHQTRMSIKLPKIVVLDDDVDPADTESLLWALATRIHPERKRYFYESNIFPWLNCYSEEERHNRKGKRVIIDALLPENAGAISSFDYAYPDDIKQRVLMHWETDFSHD
B8: I283T-P284D-N287P-S322T-N388M-C430N-L432F-L434W-S436N-dG462-S465V (protein)
chain: MFLKSLREQINLLKRQGDLRIINRPVDSYLEAAAIIRRSTETKAPVPLMTNIKGYPGCSIVGGLAALSSNPEYPLSRVAMSLGLSTTASAQSIVQYLIDGLKKTPYLPVEIDSNSAPCKQNILRGEDASLAHFPIPQVHQHDGNRYVNTWGVFIVESPDGQWCNWSIQRVQYLNDRQMIALVFPSQHISDIWEEWVKIGKPMPYALVQGCEPIVPYIAGLPLLERNVNEAEYIGALYGKGIEVVKCETHDLRVPASSEVVIEGYFAITREGVEGPFGEFAGYTDNEPSLQPILSITAISWQDDPIWPVVAEGKPVDEYHTCTGIGDAAAIQNVLLTANLPVSFVWVPLYSACHLMIVSINRHWRQTHPDLTSEQLTKKVGDVIHQTRMSIKLPKIVVLDDDVDPADTESLLWALATRIHPERKRYFYESNIFPWLNCYSEEERHNRKGKRVIIDALLPENHGAIVSFDYAYPDDIKQRVLMHWETDFSHD
B9: I283T-P284D-N287P-S322T-N388M-C430N-L432F-L434W-S436N-dG462-A463F (protein)
chain: MFLKSLREQINLLKRQGDLRIINRPVDSYLEAAAIIRRSTETKAPVPLMTNIKGYPGCSIVGGLAALSSNPEYPLSRVAMSLGLSTTASAQSIVQYLIDGLKKTPYLPVEIDSNSAPCKQNILRGEDASLAHFPIPQVHQHDGNRYVNTWGVFIVESPDGQWCNWSIQRVQYLNDRQMIALVFPSQHISDIWEEWVKIGKPMPYALVQGCEPIVPYIAGLPLLERNVNEAEYIGALYGKGIEVVKCETHDLRVPASSEVVIEGYFAITREGVEGPFGEFAGYTDNEPSLQPILSITAISWQDDPIWPVVAEGKPVDEYHTCTGIGDAAAIQNVLLTANLPVSFVWVPLYSACHLMIVSINRHWRQTHPDLTSEQLTKKVGDVIHQTRMSIKLPKIVVLDDDVDPADTESLLWALATRIHPERKRYFYESNIFPWLNCYSEEERHNRKGKRVIIDALLPENHGFISSFDYAYPDDIKQRVLMHWETDFSHD
B10: N388M-K394R-C430N-L432F-L434W-S436N-H444R (protein)
chain: MFLKSLREQINLLKRQGDLRIINRPVDSYLEAAAIIRRSTETKAPVPLMTNIKGYPGCSIVGGLAALSSNPEYPLSRVAMSLGLSTTASAQSIVQYLIDGLKKTPYLPVEIDSNSAPCKQNILRGEDASLAHFPIPQVHQHDGNRYVNTWGVFIVESPDGQWCNWSIQRVQYLNDRQMIALVFPSQHISDIWEEWVKIGKPMPYALVQGCEPIVPYIAGLPLLERNVNEAEYIGALYGKGIEVVKCETHDLRVPASSEVVIEGYFAITREGVEGPFGEFAGYIPNENSLQPILSITAISWQDDPIWPVVAEGKPVDEYHTCSGIGDAAAIQNVLLTANLPVSFVWVPLYSACHLMIVSINRHWRQTHPDLTSEQLTKKVGDVIHQTRMSIKLPRIVVLDDDVDPADTESLLWALATRIHPERKRYFYESNIFPWLNCYSEEERRNRKGKRVIIDALLPENHGAISSFDYAYPDDIKQRVLMHWETDFSHD

This test deals with 3-methylcrotonic acid. The class given is biochemical, Yersinia frederiksenii. Set-up: key: “+” representing a low increase in activity; “++++” representing a high increase in activity.
As to B1, the “Activity relative to WT” value was “++++”.
The value for B2 was “++++”; that for B3 was “++++”.
The entry for B4 is “++++”; for B5 it is “++++”.
The entry for B6 is “++++”; for B7 it is “++++”.
On to B8, for which the “Activity relative to WT” value is on record as “++++”.
The value for B9 was “++++”; that for B10 was “+”.
